Columns and labels:
blood glucose levels = experiment: In vivo pharmacodynamics of PCN-777 nanosystems in rats; set-up: species or system SD rats; conditions: diabetic rats
Experimental: Animal models and diabetes induction were undertaken. Male Sprague Dawley rats (180-200 g) and BALB/c mice (18-20 g) were provided by Beijing Vital River Laboratory Animal Technology Co. Ltd. New Zealand rabbits (2-2.5 kg) were provided in all the animal studies were conducted following the Chinese Regulations for the Administration of Affairs Concerning Experimental Animals and performed in compliance with the guidelines of the Institutional Animal Care and Use Committee (IACUC) of Wuhan University. To establish an alloxan-induced diabetic rat model, healthy rats were intravenously injected with alloxan 50 mg/kg once and the blood glucose changes were monitored daily to confirm their diabetic status. After seven days, the blood glucose was stable at 20 mmol/L, proving the diabetes model was successfully established. The difference between the establishment of diabetes models of mice and rabbits was that the dosage of alloxan in mice and rabbits is 100 mg/kg. […] INS bioactivity in vivo was undertaken. In vivo studies were performed in alloxan-induced diabetic rats (n=five per group) and rabbits (n=three per group). […] At predetermined time intervals, blood samples were collected for glucose testing using a blood glucose meter. Serum insulin level was determined using a bovine INS ELISA kit. […]

[1] = In vivo fluorescence imaging and biodistribution of RITC-INS formulations (UiO-68-NH2); set-up: species or system mice; rats
Experimental: RITC-INS, RITC-INS@U, T@RITC-INS@U were orally administered to the overnight fasted mice for in vivo fluorescence imaging. The fluorescence images of mice were captured at different time points using the SI Imaging Amix imaging system to evaluate the metabolic process of INS preparations. Another group of mice was sacrificed after 4 h of treatment. The images of organs and intestines were also obtained. Different formulations were orally administered to the overnight fasted rats for 4 h. Then the rats were sacrificed, and the intestine loops were excised and frozen in Tissue-Tek OCT with liquid nitrogen. Cross intestine sections were obtained using a freezing microtome blade and then stained the intestine sections with DAPI for 10 min and visualized by CLSM.

[2] = In vivo fluorescence imaging and biodistribution of PCN-777 formulations; set-up: species or system mice; rats; conditions: 12 h after administration
Source text: In vivo fluorescence imaging is undertaken. RITC-INS, RITC-INS@P, and R-I@F-P were orally administered to the overnight fasted diabetic mice or normal mice. The SI Imaging Amix imaging system was used to assess the distribution and metabolism of INS preparations in mice with different intestinal expressions of PCFT at different time points. Another group of diabetic mice or normal mice was sacrificed twelve hours after RITC-INS, RITC-INS@P, and R-I@F-P treatment, and the organs and intestines were collected and observed. The same procedure was done to diabetic rats. The intestine loops of the RITC-INS, RITC-INS@P, and R-I@F-P medicated rats were collected by the same procedure and frozen in Tissue-Tek OCT with liquid nitrogen. Intestinal sections were obtained using a cryostat and visualized by CLSM after staining with DAPI for 10 min.

[3] = test system: Caco-2 cell monolayers with high or low expression of PCFT; experiment: Transepithelial transport, TEER and INS degradation, PCN-777 nanosystems; conditions: 48 h of incubation
Experimental: The transepithelial transport studies were conducted following previously reported procedures. In short, the Caco-2 cells were cultured in transwell inserts for 21 days till the TEER values reached above 300Ω×cm^2. Caco-2 cell monolayers with high or low expression of PCFT were co-incubated with Free INS and I@P and I@F-P on the apical side for 48 hours. An amount of 100 μL of the sample was taken out from the basolateral side at different time intervals and 100 μL of DMEM was always supplemented to maintain a consistent volume. After 48 hours of incubation, samples of the apical and basolateral layers were collected respectively, and the cell monolayer was lysed with RIPA lysate and collected. The INS contents in each sample were then tested utilizing the bovine insulin ELISA kit. The degradation rate of INS in different preparations were calculated according to the following equation:
where m(total) is the total mass of INS added, m(apical) is the mass of INS in the apical layer, m(basolateral) is the mass of INS in the basolateral layer, and m(inside) is the mass of INS in the cell monolayer.

blood glucose level = experiment: In vivo pharmacodynamics, blood glucose after T@I@U, I@U and free INS; set-up: species or system alloxan-induced diabetic rats and mice
Experimental: In vivo INS bioactivity studies were performed in alloxan-induced diabetic animals (n=six per group). The rats and mice were induced to type I diabetes by alloxan injections. The animals were regarded as diabetic if their fasting blood glucose levels were higher than 11 mmol/L in one week after injection.

trypsin = experiment: Protection of INS from trypsin degradation by UiO-68-NH2 nanosystems; conditions: trypsin-containing HBSS buffer, 37 °C, 1 h
Experimental: To determine whether UiO-68-NH2 could protect INS from digestive enzymes, the NPs were incubated in simulated intestinal fluid containing trypsin (1 mg/mL) at 37° C. Aliquots (100 μL) at specific time intervals were taken out and added 200 μL of DMSO containing 0.1% trifluoroacetic acid to stop the enzymatic reaction. The concentration of INS was determined with the Elisa kit in all the following experiments.
Aliquots (100 μL) were removed at specified time intervals, 200 μL of DMSO containing 0.1% trifluoroacetic acid was added to stop the enzymatic reaction, and the concentration of insulin in the solution was determined using an Elisa kit.

Caco-2 cell monolayers = experiment: Lysosomal degradation of INS in cell monolayers, UiO-68-NH2 nanosystems; assay type: cell-based, human; conditions: 2 h incubation
[4] = In vivo pharmacokinetics, serum INS (UiO-68-NH2 nanosystems)
Experimental: The rats and mice fasted overnight before experiments and then administered different samples by gavage. The […] effect was tested following the oral administration of I@U and T@I@U (20 IU/kg). As control groups, one group of rats were administered free INS (20 IU/kg) by oral gavage, and the other group was administered free INS (5 IU/kg) by s.c. injection. Blood samples were collected from the orbital venous plexus and analyzed using a blood glucose meter, expressed as the percentage of baseline serum glucose level (0 h) at different periods. The INS contents in blood samples were measured using the bovine INS ELISA kit. The 0 h INS content was subtracted from the INS measured at different time intervals and plotted.
Hypoglycemic effects (FIG. 7A, B) and insulin levels in the serum of SD rats (FIG. 7C) were tested after administration of equal amounts of insulin I @ U and T @ I @ U (20IU/kg) to diabetic mice (BALB/C mice) and rats (SD rats) by gavage. As a control group, one group of rats was administered insulin (20 IU/kg) by gavage, and the other group was administered insulin (5 IU/kg) by subcutaneous injection.

[5] = in vivo; cited from earlier work

| Substance | glucose response (blood glucose levels; oral administration) | time to restoration of high blood glucose levels (blood glucose levels; subcutaneous injection) | INS fluorescence in major organs / liver ([1]; 4 h after oral administration) | INS fluorescence in sectioned intestine epithelial tissue ([1]; confocal imaging, 2 h after administration) | fluorescence in intestine epithelial tissue sections [2] | degradation of ingested INS [3] | blood glucose response (blood glucose level; oral gavage, 20 IU/kg) | time after which hypoglycemic effect wears off (blood glucose level; subcutaneous 5 IU/kg) | blood glucose level, % of the initial level (blood glucose level; subcutaneous 5 IU/kg, at 2 h) | active INS remaining (trypsin) | ingested INS degraded (Caco-2 cell monolayers) | relative (oral) bioavailability ([4]; oral 20 IU/kg versus s.c. free INS 5 IU/kg) | time of maximum serum INS level ([4]; subcutaneous 5 IU/kg) | time of return of serum INS to minimum ([4]; subcutaneous 5 IU/kg) | duration of action [5] |
| --- | --- | --- | --- | --- | --- | --- | --- | --- | --- | --- | --- | --- | --- | --- | --- |
| insulin [free INS] | fail to generate a significant glucose response | ≤ 4 h | does not show any fluorescence signal | barely any fluorescence | only weak fluorescence | almost completely degrades | fails to reduce the blood glucose level | 4 h | about 28% | almost completely degraded | about 50% | 0.7% | ≤ 1 h | 4 h | – |
| regular insulin: regular insulin (INS) as used by injection in diabetics | – | – | – | – | – | – | – | – | – | – | – | – | – | – | 4 to 8 h |

Source: patent publication US20240277818A1, “COMPOSITION INCLUDING A METAL-ORGANIC FRAMEWORK (MOF) NANOPARTICLE FOR ORAL PROTEIN ADMINISTRATION” (UNIVERSITY OF NORTH TEXAS, priority 2023, published 2024)
